In this assay the target is T1, purified full length CFTR (UniProt P13569 1-1480).
T1 construct: cystic fibrosis transmembrane conductance regulator, full length, called Wt-CFTR in the SPR methods; also called pure CFTR; Wt-CFTR; source: purified, gift from Pr Robert Ford (University of Manchester, UK)
Briefly: SPR; Biacore 3000, calumenin amine-coupled to a CM5 chip (about 2000 RU), CFTR injected at 0.15 to 1.5 nM, 5 µl/min, HBS-EP pH 7.4, 25°C, triplicate. The conditions noted are these: both partners purified. Background: In SPR one partner is held on a chip, and binding of the other changes the refractive index at the surface.

T1 sequence (P13569 whole entry): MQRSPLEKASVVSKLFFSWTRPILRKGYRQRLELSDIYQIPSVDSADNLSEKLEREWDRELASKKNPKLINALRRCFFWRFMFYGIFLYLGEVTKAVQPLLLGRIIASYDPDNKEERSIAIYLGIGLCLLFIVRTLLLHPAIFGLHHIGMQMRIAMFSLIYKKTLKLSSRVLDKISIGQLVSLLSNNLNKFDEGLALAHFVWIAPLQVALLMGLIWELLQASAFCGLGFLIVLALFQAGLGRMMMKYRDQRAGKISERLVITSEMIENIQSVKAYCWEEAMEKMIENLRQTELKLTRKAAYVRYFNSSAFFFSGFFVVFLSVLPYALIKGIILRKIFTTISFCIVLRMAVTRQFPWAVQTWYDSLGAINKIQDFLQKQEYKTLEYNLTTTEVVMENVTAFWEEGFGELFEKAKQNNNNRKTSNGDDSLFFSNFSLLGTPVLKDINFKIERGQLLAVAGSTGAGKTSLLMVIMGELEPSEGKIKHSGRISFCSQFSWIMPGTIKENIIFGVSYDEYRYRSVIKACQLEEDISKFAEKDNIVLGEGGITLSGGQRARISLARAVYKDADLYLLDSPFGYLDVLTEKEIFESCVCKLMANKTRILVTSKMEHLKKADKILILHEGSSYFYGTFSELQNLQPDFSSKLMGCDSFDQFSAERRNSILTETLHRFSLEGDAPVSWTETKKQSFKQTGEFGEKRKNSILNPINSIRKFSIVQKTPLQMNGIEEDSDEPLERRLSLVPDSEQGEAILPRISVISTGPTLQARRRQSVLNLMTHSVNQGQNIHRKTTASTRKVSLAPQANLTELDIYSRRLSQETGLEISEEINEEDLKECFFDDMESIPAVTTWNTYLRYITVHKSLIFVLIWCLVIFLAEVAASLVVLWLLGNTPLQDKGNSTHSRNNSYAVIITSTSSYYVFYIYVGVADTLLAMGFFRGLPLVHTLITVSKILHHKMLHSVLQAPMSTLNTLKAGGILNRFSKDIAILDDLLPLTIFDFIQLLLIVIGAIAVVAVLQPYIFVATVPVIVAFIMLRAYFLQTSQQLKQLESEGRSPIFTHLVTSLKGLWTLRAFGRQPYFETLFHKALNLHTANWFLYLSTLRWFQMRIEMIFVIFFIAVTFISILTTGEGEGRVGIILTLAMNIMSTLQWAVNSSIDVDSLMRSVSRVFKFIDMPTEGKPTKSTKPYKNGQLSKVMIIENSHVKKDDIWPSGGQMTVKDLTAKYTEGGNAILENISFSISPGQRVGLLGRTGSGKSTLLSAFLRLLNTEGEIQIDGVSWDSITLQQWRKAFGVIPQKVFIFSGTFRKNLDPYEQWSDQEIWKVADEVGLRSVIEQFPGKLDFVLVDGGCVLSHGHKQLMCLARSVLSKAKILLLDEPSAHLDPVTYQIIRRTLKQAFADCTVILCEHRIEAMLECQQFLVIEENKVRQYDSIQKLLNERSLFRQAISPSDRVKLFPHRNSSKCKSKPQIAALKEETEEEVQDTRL

B1: Pure recombinant human calumenin (natural protein, UniProt O43852 20-315, looked up)
chain: KPTEKKDRVHHEPQLSDKVHNDAQSFDYDHDAFLGAEEAKTFDQLTPEESKERLGKIVSKIDGDKDGFVTVDELKDWIKFAQKRWIYEDVERQWKGHDLNEDGLVSWEEYKNATYGYVLDDPDPDDGFNYKQMMVRDERRFKMADKDGDLIATKEEFTAFLHPEEYDYMKDIVVQETMEDIDKNADGFIDLEEYIGDMYSHDGNTDEPEWVKTEREQFVEFRDKNRDGKMDKEETKDWILPSDYDHAEAEARHLVYESDQNKDGKLTKEEIVDKYDLFVGSQATDFGEALVRHDEF
notes: calumenin, human, recombinant; No catalogue number, host, limits or tag are printed; also called pure calumenin; source: bought: Prospec (Israel)
As to B1, binding was characterised by a dissociation constant (Kd) of 3.8 pM.

What is called Kd is the free concentration of one partner at which half of the binding sites on the other are occupied at equilibrium, for simple one-to-one binding.

These data come from paper PMC3387016, “Proteomic Identification of Calumenin as a G551D - CFTR Associated Protein” (PLoS ONE, 2012).
